Data reported in publication PMC3943932 (Molecular cell, 2014).
Where two headings read alike, the source gives them in different places. Blank lines part the entries; values can stand above or below the binder they belong to.

Columns and labels:
Assay in all cases: pull-down
purified GST-PDP1 Y381F = molecular target: T1, purified GST-PDP1 Y381F (UniProt Q9P0J1 72-537, Y381F)
T1 sequence (looked up): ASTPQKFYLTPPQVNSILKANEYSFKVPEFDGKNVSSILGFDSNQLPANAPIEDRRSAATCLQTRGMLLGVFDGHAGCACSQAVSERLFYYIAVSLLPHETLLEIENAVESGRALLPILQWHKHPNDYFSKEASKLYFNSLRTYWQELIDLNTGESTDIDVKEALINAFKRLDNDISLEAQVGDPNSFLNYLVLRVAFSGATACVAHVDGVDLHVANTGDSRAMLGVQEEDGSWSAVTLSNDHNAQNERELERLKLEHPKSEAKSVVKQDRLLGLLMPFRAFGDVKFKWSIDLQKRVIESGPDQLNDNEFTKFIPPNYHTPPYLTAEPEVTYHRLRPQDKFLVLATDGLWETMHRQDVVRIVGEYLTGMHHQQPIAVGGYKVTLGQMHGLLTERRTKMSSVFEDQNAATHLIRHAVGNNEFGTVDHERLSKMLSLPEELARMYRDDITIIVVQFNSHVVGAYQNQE

purified GST-PDK1 [1] = molecular target: T2, purified GST-PDK1 (UniProt Q15118 29-436)
purified GST-PDK1 [2] = molecular target: T2, purified GST-PDK1; remark: listed apart in the source

T2 sequence (Q15118 29-436): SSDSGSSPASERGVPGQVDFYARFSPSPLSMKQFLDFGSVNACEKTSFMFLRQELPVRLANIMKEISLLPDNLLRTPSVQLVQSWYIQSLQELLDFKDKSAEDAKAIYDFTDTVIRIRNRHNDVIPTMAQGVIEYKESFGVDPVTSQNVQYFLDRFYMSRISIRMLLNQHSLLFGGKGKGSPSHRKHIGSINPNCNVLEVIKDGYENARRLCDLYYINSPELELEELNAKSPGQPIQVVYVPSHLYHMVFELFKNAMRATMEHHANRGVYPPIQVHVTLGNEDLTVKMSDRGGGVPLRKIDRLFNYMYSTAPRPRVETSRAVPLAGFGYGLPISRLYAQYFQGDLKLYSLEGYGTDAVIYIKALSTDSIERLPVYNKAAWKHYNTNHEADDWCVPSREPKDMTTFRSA

- binding result (purified GST-PDP1 Y381F): binds
B1: recombinant FLAG-ACAT1 (enzyme, UniProt P24752 34-427, looked up)
chain: VSKPTLKEVVIVSATRTPIGSFLGSLSLLPATKLGSIAIQGAIEKAGIPKEEVKEAYMGNVLQGGEGQAPTRQAVLGAGLPISTPCTTINKVCASGMKAIMMASQSLMCGHQDVMVAGGMESMSNVPYVMNRGSTPYGGVKLEDLIVKDGLTDVYNKIHMGSCAENTAKKLNIARNEQDAYAINSYTRSKAAWEAGKFGNEVIPVTVTVKGQPDVVVKEDEEYKRVDFSKVPKLKTVFQKENGTVTAANASTLNDGAAALVLMTADAAKRLNVTPLARIVAFADAAVEPIDFPIAPVYAASMVLKDVGLKKEDIAMWEVNEAFSLVVLANIKMLEIDPQKVNINGGAVSLGHPIGMSGARIVGHLTHALKQGEYGLASICNGGGGASAMLIQKL

- binding result (purified GST-PDK1 [1]): binds
B2: purified recombinant FLAG-PDHA1 K244R, incubated with NAM+TSA-treated H1299 cell lysates (enzyme, UniProt P08559 30-390, looked up)
chain: FANDATFEIKKCDLHRLEEGPPVTTVLTREDGLKYYRMMQTVRRMELKADQLYKQKIIRGFCHLCDGQEACCVGLEAGINPTDHLITAYRAHGFTFTRGLSVREILAELTGRKGGCAKGKGGSMHMYAKNFYGGNGIVGAQVPLGAGIALACKYNGKDEVCLTLYGDGAANQGQIFEAYNMAALWKLPCIFICENNRYGMGTSVERAAASTDYYRRGDFIPGLRVDGMDILCVREATRFAAAYCRSGKGPILMELQTYRYHGHSMSDPGVSYRTREEIQEVRSKSDPIMLLKDRMVNSNLASVEELKEIDVEVRKEIEDAAQFATADPEPPLEELGYHIYSSDPPFEVRGANQWIKFKSVS
modifications: lysine acetylation by the lysates (K321 is the site that the paper ties to PDK1 binding)

- binding result (purified GST-PDK1 [2]): binds
B3: purified recombinant FLAG-PDHA1 K321R (enzyme, UniProt P08559 30-390, looked up)
chain: FANDATFEIKKCDLHRLEEGPPVTTVLTREDGLKYYRMMQTVRRMELKADQLYKQKIIRGFCHLCDGQEACCVGLEAGINPTDHLITAYRAHGFTFTRGLSVREILAELTGRKGGCAKGKGGSMHMYAKNFYGGNGIVGAQVPLGAGIALACKYNGKDEVCLTLYGDGAANQGQIFEAYNMAALWKLPCIFICENNRYGMGTSVERAAASTDYYKRGDFIPGLRVDGMDILCVREATRFAAAYCRSGKGPILMELQTYRYHGHSMSDPGVSYRTREEIQEVRSKSDPIMLLRDRMVNSNLASVEELKEIDVEVRKEIEDAAQFATADPEPPLEELGYHIYSSDPPFEVRGANQWIKFKSVS
